Test results taken from publication PMC5924515.

Tests used:
[1] = biological target: T1, VapB15 (Synechocystis sp. PCC 6803) (UniProt P74009); assay: EMSA; conditions: 100 mM Tris-HCl pH 8.0, 100 mM NaCl, 1 mM DTT, 10% glycerol, 0.1 mg/mL sonicated salmon sperm DNA, 25 C, 30 min; 5% native PAGE in 0.5x TBE
T1 sequence: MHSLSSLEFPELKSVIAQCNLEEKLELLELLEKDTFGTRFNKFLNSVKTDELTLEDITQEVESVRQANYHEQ

[2] = biological target: T2, VapB15;VapC15-His6 (Synechocystis sp. PCC 6803;Synechocystis sp. PCC 6803) (UniProt P74009+P74010); assay: EMSA
T2 sequence 1: T1 sequence
T2 sequence 2: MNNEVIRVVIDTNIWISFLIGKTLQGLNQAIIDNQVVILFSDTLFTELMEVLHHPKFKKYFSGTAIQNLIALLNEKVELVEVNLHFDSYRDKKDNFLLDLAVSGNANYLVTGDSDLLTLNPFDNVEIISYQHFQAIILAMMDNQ

Sequence	binding [1]	binding [2]
CAAAGCTCTGGCAACCCTGCAGAACTTTAAACCTATCCCCCTAGGCTTGGGGCCAGGGGACTTTTCAAGCAACTCCTTGGGGCACTATTTGGAAATGTGATAATGGGAGTTATAATTCGCCTCTCGGAGAAAAGTTGAAATGCACTCATTGTCATCACTGGAATTTC (double strand) [P1 (PvapBC15 promoter, PS1 and PS2)]	binds	binds more weakly
GAAATTCCAGTGATGACAATGAGTGCATTTCAACTTTTCTCCGAGAGGCGAATTATAACTCCCATTATCACATTTCCAAATAGTGCCCCAAGGAGTTGCTTGAAAAGTCCCC (double strand) [P2 (3' half of PS1 and whole PS2)]	no binding	
